Measured values: the DeepSol protein solubility set

Assay: soluble on expression in E. coli; label from the status in PepcDB or PDB records

Sequence | soluble on expression in E. coli
MAHHHHHHMERMSLAVVRQLDADHERGGIWYLSGHRDHVLSIAASSHGVFATCDAKGLGLLWKHDTSHSNSDPSHVSRISSEGPAIVAACFPSSTRLCTAQGNGRVGVWDIEASTEVQSLSRLPSRGKSVNWPVINALSAWESDLVAYGGDDGYLVLSSLAVRNPVVSVNLRVPITSVAAAATSLLVGDVLGNIRCFDTRTFKSLYCFQGHRGVVTSVSVKEDASLAVSYGMDDSLALWNALPFSLTTEDRLIHRGEFHQGDTKTLLRCDWATSGAALVPVSDGRVVYLSAPTLDGIRTILPGRHRREPAQCAAFIGDGYAVSSAETEVILQRI | not soluble
MSAVPFPLLRLPNSALQKSLKEMRLVEQLSLSLLSENTMQLVRRFNRGRYFATITVVDSICVHLWTARCGQLFFKIKPDQSIRAVNILKSDSIATKFTMPKIPGFTVKKWLEHISHVFFSDTGATLRWMSSVRNIEETCEILKEVKIARLAINPSTVQDCQMRRLLPAIKELIVSDSTVHGSIVHWNLEKLSVFSTTMTLDDLLLSNCSDIAIGRNSLSHKNRNIFMRQWINGSNPRLQYFAMLMGFNGVQQLENTLFENIKYTETTVQGASTYKEFEIEGRDGRTAKIKLNTELTSRYFAMNVIF | not soluble
MGSDKIHHHHHHVHAASRGAHRRLGAMRSSASQPLLKAALWDMDGTIVDTEPYWIEAEHALVAAHGGQWSHAQAMQLVGQSLVFSAGVLQKAGVKLEAREIIDSLTARVVSKVRKSVPWRPGARELLDQLHEAGIRCALVTMSEGPLAREVVAALPKPYFEFLVTGDTVTNGKPHPEAYLKAVELLQQGDSALTIADCVALEDSAPGVAAAMAAGVATVAIPHIVPLPDDPARATWHSLEGRTVADLQQLVARRSEFAVGDIGLEDAAFRSHGLD | not soluble
MKQDGEEGTEEDTEEKCTICLSILEEGEDVRRLPCMHLFHQVCVDQWLITNKKCPICRVDIEAQLPSES | soluble
GITPRFSITQDEEFIFLKIFISNIRFSAVGLEIIIQENMIIFHLSPYYLRLRFPHELIDDERSTAQYDSKDECINVKVAKLNKNEYFEDLDLPTKLLARQGDLAGADALTENTDAKKTQKPLIQEVETDGVSNN | soluble
MKKKSVWIKADEGGWEEQKERITTGLESGADCVLVNPGDVEKVRELGNITVAAFARDNKSGADIVVVGKRGEGDGTKPLPQEIPGSFDVNAATLLTDKGVTVGGYVVIKDRSYERFAAEMGKICDYLLVTGTDWKVIPLENLIADLQREKVKIIFGVKSAEEARLAFQTLETGADGVLLDSGNPQEIKDTIKAARELESESTELESAVVTRVEPLGMGDRVCVDTCNLMQRGEGMLIGSQASGMFLVNSESDDSPYVAARPFRVNAGAVHSYIKIGDKTRYLSELQAGDSVTIIDSRGKQREGIVGRIKIESRPLMLIEAKAGDRTLTAILQNAETIKLVGKGGTPISVAKLKKGDEVLVRLEEGARHFGKKIEETIIEKLEHHHHHH | soluble
MSLSTRSRIREERKDPLSALAREYGGSKRNALLKWCQKKTEGYQNIDITNFSSSWNDGLAFCALLHTYLPAHIPYQELNSQDKKRNFTLAFQAAESVGIKSTLDINEMARTERPDWQNVMLYVTAIYKYFETEGHHHHHH | soluble
MITIKKQEIVKLEDVLHLYQAVGWTNYTHQTEMLEQALSHSLVIYLALDGDAVVGLIRLVGDGFSSVFVQDLIVLPSYQRQGIGSSLMKEALGNFKEAYQVQLATEETEKNVGFYRSMGFEILSTYDCTGMIWINREK | soluble
ARGSHMEEMIRSLQQRPEPTPEEWDLIHIATEAHRSTNAQGSHWKQRRKFLPDDIGQSPIVSMPDGDKVDLEAFSEFTKIITPAITRVVDFAKKLPMFSELPCEDQIILLKGCCMEIMSLRAAVRYDPESDTLTLSGEMAVKREQLKNGGLGVVSDAIFELGKSLSAFNLDDTEVALLQAVLLMSTDRSGLLCVDKIEKSQEAYLLAFEHYVNHRKHNIPHFWPKLLMKVTDLRMIGACHASRFLHCKVECPTELFPPLFLEVFEDQEV | soluble
MGHHHHHHSHMATSEILPSFVATMDASNFSFWQVLCSWLSNSPNYEEITKWYLGWKSMFSDQVLAHPSVKDKFNEALDIMNRAVSSNVGAYMQPGARENIAYLTHTERRKDFQYEAMQERREAENMAQRGIGVAASSVPMNFKDLIETKAEEHNIVFMPVIGKRHEGKQLYTFGRIVIYIDRGVVFVQGEKTWVPTSLQSLIDMAK | not soluble
MSLRRARIAFASIDYTGDAWRHIPSVIGEMFAGIGEHAWRRDAVLEIVGVEDEEAEGYLRRVAERRPVDGLLLRVANDIRGEHLDILERAGMPYVLIKRHIPGRRMNCVISDDVTGARMATSHLLELGHRRIGFVCGKPHLTLNRERLAGYREALEEHGVGFDEGLVRQEEHFTTEMGYRAVRSLLEAPSRPSAVFVASDTMAIGGYEAVWDLGLRIPDDVSIVGYDDIQAASALQPPLTTVRTSYYDFGRLAAQLLLDLIEGREVAPQRRVIHPTLVVRGSTREGHHHHHH | soluble
GPGSMTTAASEGIVSREQLQMMLHVILHSTDNNERRNVEKSVVQLLTTPSTLTLLMVMLRDVQGSSPGVRQLAAVLLRKKVLSLWRTIPSESRGDFKGALLEQLGCEPVKAVRLALAHLVTRVAKADAMDEDGGWPELNYAIRAAVIDPRAEMRELAMVLAYSVAEVMSEADTHCLPVVEAVLQGMLDSEDAVQRSAVKAVGTLFVFMRGQTKVWEQLLQQLVPQCLALLTKCGTEETKTNLCVDVLDLLEQLVEDLSVKKHGALLRSVALEVLSVMTNGAIQPRVRQSCAEVLASLVNQKPKFVSTTVLEPLVSACVQVMSEDNAISLPEVAHTEGMENCDDSQSDENDAADMLHVDPPCLFAGRLLSTIATKVAAKSFTGALLPLISPVAQSPQAVGPTGAKSFDPRSCLFGRG | not soluble
QVQLQESGGGLVQPGGSLRLSCAASGFTFSNSAMSWVRQAPGKGLEWVSSISGSGGNTYSADSVKGRFTISRDNAKNSLYLQMNSLRAEDTAVYYCARDWYGMDVWGQGTTVTVSS | soluble
LGQTAYQKDSLARLARRGDELGTLARDFNRMGERLQSLIGSQRQLLRDVSHELRSPLARLRIALALAERAEPEARAQMWPRLEQECDRLEALIGEILALARLDAEPGASQRIALLPLLQRLREDALLLAPEQDIRLEVAPDLSIDGWPDMFERAVDNLLRNAVRFNPVGQPLEVRASSAGDYLRLSVRDHGPGIAAELQEQLGEPFFRAPNQSSPGHGLGLAIARRAIERHGGHLRLGNHPDGGFIATLSLPLRRKAT | not soluble
MGSDKIHHHHHHMQFGKTDTPEDIDFTLPKDHPDTKKILSEAKPGKHFNVYVGCAKWNKTDLKNFYPKGTKDELQYYATQFNSIELNATFYKSPSKDQVQTWKAKAAKGFKFFPKIPNTISHFKRLVGVETIVEEFCDAVVLFEENLGMSFLQMHDNFKPKDMDKLDAFLKKFPASVPLAVELRNEEWYSDKNVQDDLHAMLVKYKKTFVLVDTAARRDIMHMRLTSDKAFIRYVGANHESDYARLDDWIKRIKTWRKEGLNELYFFVHQNVELESPLLSAYFIEKMNKEFDLDLTVPQTIKKKQ | not soluble
MSNIFLSLEPKILWSHFYRLTQIPRPSGHEEAVRTYVADVAKRCGLEWLVDEAGNIIVRKPASAGMERRRGVILQAHLDMVPQKNAGTAHDFTKDPIDAVIDGEWVHARGTTLGADNGIGVAAALAVLESDDLRHGPLEALFTVNEEAGMTGALGLKPGVLRGDILLNLDSEDEGELFIGCAGGLDGTMRFDYSCEPLPPGYSGIEIRVSGLRGGHSGMDIDLGRGNANKIMNRLLQMGREHHGLLLASIDGGSLRNAIPRESVALVAVPSAQKVAFLDELHSLASAIGLELNGVDPELRVEAADAALPVGMIDDTVAQRLFDAVAACPNGVHRMSEAMAGLVETSNNLARVHSDGRAVSVECLLRSASVEGMRELADAVAGIAERAGTVAAFENGYPGWKPNPASPILKCMVKVYRDRFGKTPEIRAVHAGLECGIIGANNPQLDMISFGPTIRHPHSPDEKVECSSVLKFWELLVATLEEVPEPLEHHHHHH | not soluble
MSDPLHVTFVCTGNICRSPMAEKMFAQQLRHRGLGDAVRVTSAGTGNWHVGSCADERAAGVLRAHGYPTDHRAAQVGTEHLAADLLVALDRNHARLLRQLGVEAARVRMLRSFDPRSGTHALDVEDPYYGDHSDFEEVFAVIESALPGLHDWVDERLARNGPS | soluble
MGSDKIHHHHHHMKIILGIPDLKIPVWTFKQPLMINQLNWDRPSWENETWVDSGGYQIMVRGIKVEIEKVVEKYKILDATQYMSLDIPSIPCHKPSELNYKYFEYLYTVFDKKIVPVIHAYDPESIKKSIDFYSQYTDLVAFGGIVPPTLNKSGNKKLAVAIYYLVRKLWKGKIHVLGAGSPFMRKVYFNADSVDTSTYRVKGIHGMVIIPGKGERYVGNRKIVWGTKRASEEELEILLSFLDKTHYPFQIRFDNWIDRSLINAWVLLNSEYESNNPLIRYSKKLDTFAEDEIEEEVNELCM | not soluble
SAFVAALSAAGLPTDAFVFEGFLPTRGKRRLEKLANLKGEQRVVIFYEAPGRLQAALADMREVLGDRHVVVARELTKIHEEFVRGRVSFVAEHFAAVDVKGEVVILVAPAPAP | soluble
MSWIERIKSNITPTRKASIPEGVWTKCDSCGQVLYRAELERNLEVCPKCDHHMRMTARNRLHSLLDEGSLVELGSELEPKDVLKFRDSKKYKDRLASAQKETGEKDALVVMKGTLYGMPVVAAAFEFAFMGGSMGSVVGARFVRAVEQALEDNCPLICFSASGGARMQEALMSLMQMAKTSAALAKMQERGLPYISVLTDPTMGGVSASFAMLGDLNIAEPKALIGFAGPRVIEQTVREKLPPGFQRSEFLIEKGAIDMIVRRPEMRLKLASILAKLMNLPAPNPEAPREGVVVPPVPDQEPEA | soluble
MTVGGMQPVSIMGKHLNNFERLSILEDYLSGSDSKVAIEQKYGLSHGLIRSWLSKFGLEDKVHPVPMKVSQSPQSELPLNEKEELEQLRKENRVLKSRLKREELGHQAYKLLVELAEETYGIQIRKNSEAK | not soluble
SASEDAALDATGHKKGEPAFGVTIPKGTTYRDSDGKEVPHPCVDRKIGYQGHFDALYGTYNYSVKEPATDLPKLELMAVDGQQVVPQESLCFRLPPDAGEDGEELSRIRIPDDEEFSFLGKPGDIVWYAPQNIPFANGHRPIWAGIGAFDPHHEPKGKDSIPEHLDKNMYFELKDFSGPGDVNVFFKNNSRKEVERIFSSNDEELKTIEYEMGSHGHFNWTFSKPGIYELTWEAYVKNGAFKVKTEPVRQIWLVGSDEEVGLPEGTTTNLNKITKPLDKDATNEPPTDPSEKKKPPRPEKGHSETSSPSALDDSIERAWKLTGTPKTIINDGHMDLALTRPDKEFVTVINREGKKYSSGDVTLAVPDSGGDQGGPLVKTDSWKDRIEAQISGSLPDQAWVLPESQDHKLPWVGFSNEDLPSDALLPDSKMTVSLNKVELPHDGRMISWHNGISGIDLLTDTDDLSKNLEYGLHAHDHQSMLFTKEGAYGLEYSFDITTASGKQESYPLHISYLVGDATIARAKEILAGEKLGGSLKKKPQEKETKKPASVQNKSGKHNKDTVGSESARKRQQLAATSGSDTNGIYSFHDGDVQDEAVTTAAEWQELDT | not soluble
MPPKQQGPSKKSEQKRKEKVIEDKTFGLKNKKGNKNQKFVAQVENQVRNNNTRMDLVRQQEAAKKKEKDELLDIANLLKPVEQKVAKDVDPKSLLCVFFKQGLCGKGAKCKFSHDLAVAQKTAKKNLYADSREVEKDEETNENWDSDKLNEVVNKKNKNKHMIDIVSSFMTDIFKFKKLNFKVCKYFLEAVENNKYGWFWECPNGGEKCQYRHCLPEGYVLKKERKAMEQQKEDEISIEELVEKERAALSSKNLTKLTLQTFIAWKKKKLRERKEKEEADLKEKKEKIKSGKHNGMSGRDLFLYDANLVNNDDDEAGDIEMEKEEVDENEKVFEIDANFFKFDGMDDELTDQMSKSSTAVESTAKGMAKMDINEDLFDIDEDVENLDSDED | soluble
